Patent publication US20180016349A1 (Takeda / Millennium, published 2018)

B1: Ab110 (antibody, human IgG1, lambda, V domains shown)
VH: EVQLLESGGGLVQPGGSLRLSCAASGFTFSSYGMHWVRQAPGKGLEWVSIIYSGGSTYYADSVKGRFTISRDNSKNTLYLQMNSLRAEDTAVYYCARRATWGGATHDYWGQGTLVTVSS
VL: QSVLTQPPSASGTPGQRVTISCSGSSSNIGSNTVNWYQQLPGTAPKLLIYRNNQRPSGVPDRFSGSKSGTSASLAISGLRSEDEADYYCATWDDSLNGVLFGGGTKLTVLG
B2: Ab79 (antibody, human IgG1, lambda, V domains shown)
VH: EVQLLESGGGLVQPGGSLRLSCAASGFTFDDYGMSWVRQAPGKGLEWVSDISWNGGKTHYVDSVKGQFTISRDNSKNTLYLQMNSLRAEDTAVYYCARGSLFHDSSGFYFGHWGQGTLVTVSS
VL: QSVLTQPPSASGTPGQRVTISCSGSSSNIGDNYVSWYQQLPGTAPKLLIYRDSQRPSGVPDRFSGSKSGTSASLAISGLRSEDEADYYCQSYDSSLSGSVFGGGTKLTVLG
notes: also called TSF79
B3: Ab72 (antibody, human IgG1, lambda, V domains shown)
VH: EVQLLESGGGLVQPGGSLRLSCAASGFTFSSYGMNWVRQAPGKGLEWVSGISGSGGSTYYADSVKGRFTISRDNSKNTLYLQMNSLRAEDTAVYYCAKDSNYDFWSGYYYGMDVWGQGTLVTVSS
VL: QSVLTQPPSASGTPGQRVTISCSGSSSNIGSKTVSWYQQLPGTAPKLLIYDNNKRPSGVPDRFSGSKSGTSASLAISGLRSEDEADYYCSSYAARSTNIIFGGGTKLTVLG
B4: Ab19 (antibody, human IgG1, lambda, V domains shown)
VH: EVQLLESGGGLVQPGGSLRLSCAASGFTFNNYDMTWVRQAPGKGLEWVAVISYDGSDKDYADSVKGRFTISRDNSKNTLYLQMNSLRAEDTAVYYCARVYYYGFSGPSMDVWGQGTLVTVSS
VL: QSVLTQPPSASGTPGQRVTISCSGSNSNIGSNTVNWYQQLPGTAPKLLIYSDSNRPSGVPDRFSGSKSGTSASLAISGLRSEDEADYYCQSYDSSLSGSRVFGGGTKLTVLG
B5: Ab43 (antibody, human IgG1, lambda, V domains shown)
VH: EVQLLESGGGLVQPGGSLRLSCAASGFTFSSYGMHWVRQAPGKGLEWVSRINSDGSSTSYADSMKGQFTISRDNSKNTLYLQMNSLRAEDTAVYYCARGGYYYYAMDVWGQGTLVTVSS
VL: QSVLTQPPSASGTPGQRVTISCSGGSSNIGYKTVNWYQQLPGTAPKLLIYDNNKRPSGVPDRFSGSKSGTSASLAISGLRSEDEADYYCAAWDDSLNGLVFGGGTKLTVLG

What was measured:
[1] = molecular target: T1, human CD38 on cells (MOLP-8, RPMI-8226, Daudi cell lines, patient cells and tissues) (human, UniProt P28907 1-300); experiment: cell-based or functional assay
[2] = molecular target: T1, human CD38 on cells (MOLP-8, RPMI-8226, …); experiment: flow cytometry titration on MOLP-8 cells, 4 C, nonlinear fit; 95% confidence interval in parentheses
[3] = molecular target: T2, soluble human CD38 ectodomain (ECD), R&D Systems Cat #2404-AC (human, UniProt P28907 43-300); experiment: SPR Biacore A100, 22 C, mAb captured by anti-human IgG, soluble human CD38 ECD as analyte, 1:1 fit
T2 construct: Bought ectodomain; also called HuCD38; human recombinant CD38

cynomolgus CD38 = molecular target: T3, cynomolgus CD38 (cynomolgus (Macaca fascicularis), UniProt Q5VAN0 1-301, limits assumed); experiment: not described at this place (FACS screen on CHO cells expressing cynomolgus CD38 is described in Example 3)
T3 construct: also called cyCD38; cyno CD38

[4] = molecular target: T1, human CD38 on cells (MOLP-8, RPMI-8226, …); experiment: flow cytometry (FACS KD) on RPMI-8226 cells

T3 sequence (Q5VAN0 whole entry): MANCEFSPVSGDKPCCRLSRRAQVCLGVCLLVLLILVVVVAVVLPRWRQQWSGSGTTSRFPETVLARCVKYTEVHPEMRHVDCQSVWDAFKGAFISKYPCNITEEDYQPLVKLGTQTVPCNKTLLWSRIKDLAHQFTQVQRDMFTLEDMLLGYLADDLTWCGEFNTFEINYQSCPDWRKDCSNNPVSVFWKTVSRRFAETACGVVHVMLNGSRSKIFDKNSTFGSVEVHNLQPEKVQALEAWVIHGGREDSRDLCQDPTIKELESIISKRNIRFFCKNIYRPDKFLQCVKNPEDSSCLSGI

Row | Binder | ADCC EC50 nM (DAUDI) [1] [nM] | ADCC EC50 nM (MOLP-8) [1] [nM] | ADCC EC50 nM (RPMI-8226) [1] [nM] | Apoptosis EC50 nM (DAUDI) [1] [nM] | CDC EC50 nM (MOLP-8) [1] [nM] | Kd [2] [nM] | Kd [3] [nM] | koff [3] [s⁻¹] | kon [3] [M⁻¹ s⁻¹] | binding result (cynomolgus CD38) | Kd [4] [nM]
1 | B1 | 0.24 | 0.874 | 2.98 | 0.4 | 1.99 | 1 | 1400 | 0.171 | 122000 |  | 
2 | B2 | 0.03 | 0.047 | 0.46 | 0.048 | 1.1 | 1.2 | 5.5 |  |  | binds | 0.508
3 | B3 | 0.14 | 0.193 | 2.35 | 0.35 | 0.66 | 0.6 | 126 | 0.00182 | 14400 |  | 
4 | B4 | 0.08 | 0.038 | 0.46 | 0.032 | 0.98 | 0.4 | 5.3 |  |  | binds | 
5 | B5 | 0.12 | 0.027 | 3.84 | 1.56 | 2.2 | 1.1 | 537 | 0.146 | 272000 |  | 
